Results on 1 molecule are retold here after PMC4935968, “Engineering biosynthesis of the anticancer alkaloid noscapine in yeast” (Nature Communications, 2016).

The assay has as its target T1, hexa-histidine tagged PsMT2 (Papaver somniferum, UniProt I3PLQ6 1-356).
T1 construct: PsMT2, O-methyltransferase of the noscapine gene cluster of Papaver somniferum; gene codon-optimised for S. cerevisiae, amplified with primers PsMT2-pET-F/R and inserted into pET28a; Printed mass of the His-tagged protein is 40.09 kDa; also called His-tagged PsMT2; source: E. coli BL21(DE3), co-expressed with T7-tagged PsMT3 or Ps6OMT; complex purified (Ni-NTA agarose, then T7 tag antibody …)
T1 sequence (looked up): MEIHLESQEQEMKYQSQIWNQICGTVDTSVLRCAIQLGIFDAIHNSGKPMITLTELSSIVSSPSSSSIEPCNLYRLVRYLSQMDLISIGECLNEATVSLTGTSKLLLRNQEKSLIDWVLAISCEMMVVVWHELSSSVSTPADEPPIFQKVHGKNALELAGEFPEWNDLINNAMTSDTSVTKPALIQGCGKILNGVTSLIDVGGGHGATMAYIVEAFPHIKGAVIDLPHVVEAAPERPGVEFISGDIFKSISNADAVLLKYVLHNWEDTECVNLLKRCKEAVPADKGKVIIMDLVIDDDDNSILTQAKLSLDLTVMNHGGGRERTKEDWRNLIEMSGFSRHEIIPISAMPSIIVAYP
The assay is described as follows: pull-down; tandem affinity co-purification from lysate of E. coli co-expressing both proteins: Ni-NTA agarose (His-tagged PsMT2), eluate then on T7 tag antibody agarose (T7-tagged partner); product analysed by SDS-PAGE and western blot with Anti-6X His tag and Anti-T7 tag antibodies. Particulars: partners not purified. On the technique in general: In western blotting, separated proteins are transferred to a membrane and probed.

B1: Ps6OMT with T7 tag (enzyme, Papaver somniferum, UniProt Q6WUC1 1-346, looked up)
chain: METVSKIDQQNQAKIWKQIYGFAESLVLKCAVQLEIAETLHNNVKPMSLSELASKLPVAQPVNEDRLFRIMRYLVHMELFKIDATTQKYSLAPPAKYLLRGWEKSMVDSILCINDKDFLAPWHHLGDGLTGNCDAFEKALGKSIWVYMSVNPEKNQLFNAAMACDTRLVTSALANECKSIFSDGISTLVDVGGGTGTAVKAISKAFPDIKCTIYDLPHVIADSPEIPNITKISGDMFKSIPSADAIFMKCILHDWNDDECIQILKRCKEALPKGGKVIIVDVVIDMDSTHPYAKIRLTLDLDMMLNTGGKERTKEEWKTLFDAAGFASHKVTQISAVQSVIEAYPY
notes: norcoclaurine 6-O-methyltransferase from Papaver somniferum (Ps6OMT); also called norcoclaurine 6-O-methyltransferase from P. somniferum; source: E. coli, co-transformed with pCS3306 (His-tagged PsMT2) and pCS3534; complex purified by a similar procedure as PsMT2/PsMT3 (Ni-NTA agarose, then T7 tag antibody agarose); not shown: T7 tag, C-terminal, kept
As to B1, the binding result is recorded as “binds”.
